# Paper PMC5988983
# B1: γ-RSD (γ-resorcylate decarboxylase) (Polaromonas sp. JS666) (protein)
# chain: MNGKIALEEHFATEETLMDSAGFVPDKDWPELRSRLLDIQDRRVRLMDEHGIETMILSLNAPAVQAIADSTRANETARRANDFLAEQVAKQPTRFRGFAALPMQDPELAARELERCVKELGFVGALVNGFSQDNRSAVPLYYDMAQYWPFWETVQALDVPFYLHPRNPLPSDARIYDGHAWLLGPTWAFGQETAVHALRLMGSGLFDKYPALKIILGHMGEGLPYSMWRIDHRNAWIKTTPKYPAKRKIVDYFNENFYLTTSGNFRTQTLIDAILEIGADRILFSTDWPFENIDHAADWFENTSISEADRKKIGWGNAQNLFKLNR
# Experiments:
# [1] = target: γ-Resorcylate decarboxylase (γ-RSD) from Polaromonas sp. JS666, His6-tagged (Polaromonas sp. JS666); test: crystal structure
# [2] = substrate: O=C(O)c1cccc(O)c1O; test: purified protein; type: biochemical, Polaromonas sp. JS666; conditions: 50 mM HEPES pH 7.0, 30 °C
# [3] = substrate: Cc1cc(O)c(C(=O)O)c(O)c1; test: purified protein; type: biochemical, Polaromonas sp. JS666; conditions: 50 mM HEPES pH 7.0, 30 °C
# [4] = substrate: O=C(O)c1c(O)cc(O)cc1O; test: purified protein; type: biochemical, Polaromonas sp. JS666; conditions: 50 mM HEPES pH 7.0, 30 °C
# [5] = substrate: O=C(O)c1c(O)cccc1O; test: purified protein; type: biochemical, Polaromonas sp. JS666; conditions: 50 mM HEPES pH 7.0, 30 °C
Molecule,stoichiometry N [1],Km [2] [µM],kcat [2] [s⁻¹],kcat/Km [2] [M⁻¹ s⁻¹],Km [3] [µM],kcat [3] [s⁻¹],kcat/Km [3] [M⁻¹ s⁻¹],Km [4] [µM],kcat [4] [s⁻¹],kcat/Km [4] [M⁻¹ s⁻¹],Km [5] [µM],kcat [5] [s⁻¹],kcat/Km [5] [M⁻¹ s⁻¹]
"γ-Resorcylate decarboxylase (γ-RSD) from Polaromonas sp. JS666, His6-tagged (enzyme)",4,–,–,–,–,–,–,–,–,–,–,–,–
B1,–,111 ± 11,0.47 ± 0.02,4200 ± 500,79 ± 6,0.38 ± 0.01,4800 ± 400,48 ± 1,0.18 ± 0.01,3800 ± 300,32 ± 2,0.44 ± 0.01,13000 ± 1000
